Reference: article PMC10509167, “Identification and characterization of endo-α-, exo-α-, and exo-β-D-arabinofuranosidases degrading lipoarabinomannan and arabinogalactan of mycobacteria” (Nature Communications, 2023)

B1: ExoMA1 (MIAR_33200) (Microbacterium arabinogalactanolyticum) (protein)
chain: MPDLNSIAALRQVQTRSISPENFDGTAGGGGRATEGTGADCARDLGPGWKISPSVDIKAGETFELASIEGAGKITHIWITTHTDNWRTLILRAFWDGADEPAVEVPYGDFFCNGWGVFAQVNSQAIAANPHGGFNSYWPMPFRDGARLTIENTSVVDVRVYYQVTYEIGGDHSNDAYFHAQWRRSNPLEELTPHVILEGIEGEGHYVGTYIAWGVNSNGWWGEGEIKFYLDDDTDHPTICGTGTEDYFGGAWNFDIPGKGYTEFSTPYLGMPQVIRPDGLYVSQQRFGMYRWHLQDPIHFATGIPKVDIQALGWRSGWRYLPLRDDIASTAMFYLDRPTARRPKSPSADDMEVHLGTAPVPDLGATPPRV
notes: dodecamer
B2: ExoMA2 (MIAR_33170) (Microbacterium arabinogalactanolyticum) (protein)
chain: SRRARRIPHTAESVAFPLGGIGTGNVSLGARGELRDWEFENLPDKGRLNPRSFFAIHAAPQGGPSATRVLEARSSGRHDRDAGYGFDELAGLPRLDSAGLHGEYPVVDIDFTDATLPVTVSLHAFTPLVPLDADASGIPAAVLRYRVVNPGDAPVTVTVVGSMSHTAGRGAPGPDAPWGMRGTQSVRWRESDGIRGLDFDIDLDHDDPGYGTMSLTTTDSSTTVKPQWVTSYWPDGARLFWNDLADDGLLAPEARLTLEDKPRGLFAERDADPDAPALTEEQMLAKLPRVRTGSLGIVHTLAPGEERDFEFVLAWSFPNRRRGWHGHIIFDDALEDGAPDLRDELGPIVRNHYAVRWPDAWAAAAQLHRDLPALEGATDAFVEELYGGSLDPVLADAVGANIAALRSTTCFVLESPTPELGDGPVFAAWEGSFDHGGSCEGTCTHVWSYAQTAAWLFPGLERSARRAEYLLETDESGAQKFRGNRIFGAPRWFIGPAVDGQLGTFLRLHREWRFCGDDEFLRELWPAAARTLDYAAREWDHDGDGLLDGEMHNTYDIEFHGVEPLSNIIHLAALRAGVRMAGHLGDTARAQEWALRADHVAAAIEGVLWNGEYYRQVIDDVDAHRYQYGDGVLSDQLLGQFHAFLGGLGYLLPEAHVRSALDAIVQHNHRGDLRDHESTQRVYALNDEGGLLLASWPEGGRPALPFVYADEVWTGIEHQVAVSLLFAGRYDDALRIERTLRARYDGAHRSPWNEIECGNHYARSLASWGLLIGASGAQWDAGARTLSFDPVLPGDARFLFTTATGWGGVEIGDDVITLRLHGGALDLDELRLRGEVAGRGIHLDAGETRTLTLT
notes: dimer

What was measured:
purified protein [1] = substrate: O=[N+]([O-])c1ccc(O[C@H]2O[C@H](CO)[C@@H](O)[C@@H]2O)cc1; experiment: purified protein; assay type: biochemical, Microbacterium arabinogalactanolyticum; conditions: 37 °C, 50 mM sodium acetate pH 5.5
purified protein [2] = substrate: O=[N+]([O-])c1ccc(O[C@@H]2O[C@H](CO)[C@@H](O)[C@@H]2O)cc1; experiment: purified protein; assay type: biochemical, Microbacterium arabinogalactanolyticum; conditions: 37 °C, 50 mM sodium phosphate pH 6.0

| Protein | Km (purified protein [1]) | kcat (purified protein [1]) | Km (purified protein [2]) | kcat (purified protein [2]) |
| --- | --- | --- | --- | --- |
| B1 | 2550 µM | 44.4 s⁻¹ |  |  |
| B2 |  |  | 2730 µM | 12.0 s⁻¹ |
